Test results from publication PMC9388126 (Proceedings of the National Academy of Sciences of the …, 2022).

B1: zebrafish GNPTAB minimal construct (catalytic and EF-hand domains) (domain or fragment)
chain: EVVVEWSRDQYHVLFDSYRDNVAGKSFQTRLCLPMPIDVVYTWVNGTDPKLIKEVTELKRSKRDPLIPECQGKQTPEKDKCYRDDNTASRFEDNEELRYSLRSIEKHAPWVRHIFIVTNGQIPSWLNLDNPRVSVVTHQDIFQNQTHLPTFSSPAIETHIHRIPGLSQKFIYLNDDVMFGKDVWPDDFYSHSKGQKVYLTWPVPNDTFADSLRYVNRLLNAQFGFTSRKVPAHMPHMIDRLIMQELQDTFPQEFDKTSSHRVRHSEDMQFAFSYFYFLMSAVQQLNISEVFDEIDTDHSGVLSDREIRTLATRIHELPLSLQDLTSLEQMLINCSKSLPSNLTHLHAVSPTQEAYYDPSMPPVTKGLVIHCKPITERIHKAFKDQNKYKFEIMGEEEIAFKMIRTNVSHVVGQLDDIRKNPRKFICLNDNIDHIHKDAGTVKAVLRDFYESMFPLPSQFELPREYRNRFLHMTELQEWRIYRDKL
modifications: N-linked glycans (up to five visible on each chain)

Assays:
[1] = biological target: clawed frog GNPTG (gamma subunit of GNPT) (clawed frog (Xenopus laevis)); experiment: crystal structure
crystal structure = biological target: the molecule itself; experiment: crystal structure

Row | Molecule | stoichiometry N [1] | stoichiometry N (crystal structure)
1 | clawed frog GNPTG (gamma subunit of GNPT) (natural protein) | 2 | 
2 | B1 |  | 2
